In series [1] the target is Trastuzumab. Description: cell-based or functional assay.
Series [2] deals with rat IgG.
The target of series [3] is IgG1 in mouse serum.
For series [4], the target named is rabbit IgG.
Series [5] has as its target monkey IgG.
The target in series [6] is canine IgG.
Series [7] addresses pig serum IgG.
Series [8] deals with mouse IgG.
Series [9] deals with human IVIg (intravenous immunoglobulin).
In series [10] the target is IgG1 in human serum.
In series [11] the target is human IgG.

Bounds are passed on as bounds.

IdeE mutant T8E (enzyme) yielded a Fold of activity relative to wild-type (cleavage of human IgG1, ELISA) in series [1] of 2.09 fold.

For IdeE mutant A59I (enzyme), the Fold of activity relative to wild-type (cleavage of human IgG1, ELISA) in series [1] came to 2.31 fold.

IdeE mutant A59L (enzyme): in [1], the Fold of activity relative to wild-type (cleavage of human IgG1, ELISA) turned out to be 2.41 fold and the cleavage of human IgG1, SDS-PAGE (fold of wild-type IdeE) was over 2.

For IdeE mutant E97D (enzyme), in series [1], the Fold of activity relative to wild-type (cleavage of human IgG1, ELISA) is 2 fold and the cleavage of human IgG1, SDS-PAGE (fold of wild-type IdeE) was over 2.

In [1], IdeE mutant A59V (enzyme) had a Fold of activity relative to wild-type (cleavage of human IgG1, ELISA) of 2.68 fold and a cleavage of human IgG1, SDS-PAGE (fold of wild-type IdeE) of over 2.

Regarding “IdeE C-terminal truncated mutant WT_delC5 (enzyme)”, the cleavage of human IgG1, SDS-PAGE (fold of wild-type IdeE) in series [1] is over 2.

Take IdeE mutant T8W (enzyme): in series [1], the Fold of activity relative to wild-type (cleavage of human IgG1, ELISA) was 2.58 fold and the cleavage of human IgG1, SDS-PAGE (fold of wild-type IdeE) is over 2.

Take IdeE mutant R280H (enzyme): in series [1], the Fold of activity relative to wild-type (cleavage of human IgG1, ELISA) turned out to be 2.3 fold and the cleavage of human IgG1, SDS-PAGE (fold of wild-type IdeE) was over 2.

As for IdeE mutant T8D (enzyme), in series [1], the Fold of activity relative to wild-type (cleavage of human IgG1, ELISA) came to 2.21 fold and the cleavage of human IgG1, SDS-PAGE (fold of wild-type IdeE) is over 2.

On to IdeE mutant A10R (enzyme), for which the Fold of activity relative to wild-type (cleavage of human IgG1, ELISA) in series [1] turned out to be 2.2 fold.

For “IdeE C-terminal truncated mutant WT_delC10 (enzyme)”, in series [1], the cleavage of human IgG1, SDS-PAGE (fold of wild-type IdeE) is over 2.

As to IdeE mutant T24G (enzyme), the Fold of activity relative to wild-type (cleavage of human IgG1, ELISA) in series [1] was 2.09 fold.

For IdeE mutant T24S (enzyme), the Fold of activity relative to wild-type (cleavage of human IgG1, ELISA) in [1] turned out to be 2.18 fold.

Turning to IdeE mutant R280K (enzyme), the Fold of activity relative to wild-type (cleavage of human IgG1, ELISA) in [1] came to 2.2 fold.

The molecule IdeE mutant A10K (enzyme) returned a Fold of activity relative to wild-type (cleavage of human IgG1, ELISA) in [1] of 1.99 fold.

IdeE mutant T8Y (enzyme) came in with a Fold of activity relative to wild-type (cleavage of human IgG1, ELISA) in series [1] of 2.3 fold.

Turning to IdeE mutant T24A (enzyme), in series [1], the Fold of activity relative to wild-type (cleavage of human IgG1, ELISA) was determined as 2.23 fold and the cleavage of human IgG1, SDS-PAGE (fold of wild-type IdeE) is over 2.

B1: IdeE combined mutant E97D_del18 (protein)
chain: ITSVWTKGVTPLTPEQFRYNNEDVIHAPYLAHQGWYDITKAFDGKDNLLCGAATAGNMLHWWFDQNKTEIEAYLSKHPDKQKIIFNNQELFDLKAAIDTKDSQTNSQLFNYFRDKAFPNLSARQLGVMPDLVLDMFINGYYLNVFKTQSTDVNRPYQDKDKRGGIFDAVFTRGDQTTLLTARHDLKNKGLNDISTIIKQELTEGRALALSHTYANVSISHVINLWGADFNAEGNLEAIYVTDSDANASIGMKKYFVGINAHRHVAISAKKIEGENIGAQVLGLFTLSSGKDIWQKLSHHHHHH
Regarding B1, the “cleavage of serum IgG, SDS-PAGE” value was “almost no cleavage effect for rat and mouse serum IgG” in series [2]; “can effectively cleave rabbit, canine, and monkey serum IgG, with the best cleavage effect for rabbit serum IgG” in [4]; “can effectively cleave rabbit, canine, and monkey serum IgG” in [5]; “can effectively cleave rabbit, canine, and monkey serum IgG” in series [6]; “poor cleavage effect for pig serum IgG” in series [7]; “almost no cleavage effect for rat and mouse serum IgG” in series [8]. In addition, the “cleavage in mouse serum, SDS-PAGE” value in [3] was “little or no cleavage activity against IgG1 in mouse serum”. The “cleavage, SDS-PAGE” value in series [4] was “E97D_del18 could effectively cleave canine IgG, rabbit IgG and mouse IgG2a”; in series [6] it was “E97D_del18 could effectively cleave canine IgG, rabbit IgG and mouse IgG2a”. The “cleavage of human IVIg in mouse serum and plasma, SDS-PAGE” value in series [9] is “E97D_del18 is effective in cleaving human IVIg in both mouse serum and plasma”. For the same molecule, the “cleavage in human serum, SDS-PAGE” value in [10] is “E97D_del18 cleaves in human serum to produce an apparent 25 kD Fc fragment”.

B2: IdeE mutant IDEEV2 (protein)
chain: ITSVWTKGVTPLTPEQFRYNNEDVIHAPYLAHQGWYDITKAFDGKDNLLCGAATAGNMLHWWFDQNKTEIEAYLSKHPDKQKIIFNNQELFDLKAAIDTKDSQTNSQLFNYFRDKAFPNLSARQLGVMPDLVLDMFINGYYLNVFKTQSTDVNRPYQDKDKRGGIFDAVFTRGDQTTLLTARHDLKNKGLNDISTIIKQELTEGRALALSHTYANVSISHVINLWGADFNAEGNLEAIYVTDSDANASIGMKKYFVGINAHGHVAISAKKIEGENIGAQVLGLFTLSSGKDIWQKLS
Turning to B2, the “digestion of purified IgG, non-reduction SDS-PAGE (1:200)” value in series [4] is “IDEEV2 can in species-specificity effectively digest IgG in rabbits, dogs, monkeys, and humans”; in series [5], “IDEEV2 can in species-specificity effectively digest IgG in rabbits, dogs, monkeys, and humans”; in [6], “IDEEV2 can in species-specificity effectively digest IgG in rabbits, dogs, monkeys, and humans”; in [11], “IDEEV2 can in species-specificity effectively digest IgG in rabbits, dogs, monkeys, and humans”.

The values above are taken from patent publication US20250257346A1.
